Source: patent US20110105397A1, “METHOD FOR TREATING HEART FAILURE WITH STRESSCOPIN-LIKE PEPTIDES” (priority 2009, published 2011)
Several values for one entry are separate records, joined by “and”; a condition that tells them apart may be missing. Identical values can stand only once. Where no end group is shown, it is not given here.

Tests used:
[1] = target: T1, human corticotrophin releasing hormone receptor type 2 (CRHR2) (human) (UniProt Q13324); assay: radioligand competition against [125I]-anti-sauvagine-30, membranes of SK-N-MC cells with human CRHR2
T1 sequence (looked up): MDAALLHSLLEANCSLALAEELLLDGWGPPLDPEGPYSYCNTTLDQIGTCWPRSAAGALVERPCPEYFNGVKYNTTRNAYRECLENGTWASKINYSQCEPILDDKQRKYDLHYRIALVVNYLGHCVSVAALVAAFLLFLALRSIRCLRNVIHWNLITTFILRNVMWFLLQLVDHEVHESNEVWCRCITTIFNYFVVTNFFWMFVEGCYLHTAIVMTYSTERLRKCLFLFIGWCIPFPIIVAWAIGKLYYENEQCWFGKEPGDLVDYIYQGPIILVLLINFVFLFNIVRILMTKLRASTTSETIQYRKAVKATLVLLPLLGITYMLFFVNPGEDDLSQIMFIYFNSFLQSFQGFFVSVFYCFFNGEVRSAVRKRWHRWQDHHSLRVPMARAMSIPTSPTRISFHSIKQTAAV

[2] = target: T2, human corticotrophin releasing hormone receptor type 1 (CRHR1) (human, UniProt P34998 24-415); assay: radioligand competition against [125I]-(Tyr0)-sauvagine, CRHR1 assay; ND = Not detectable
T2 construct: whole, on cells; cAMP assay on whole cells; radioligand assay on cell membranes; also called h-CRHR1; CRH receptor type 1
T2 sequence (looked up): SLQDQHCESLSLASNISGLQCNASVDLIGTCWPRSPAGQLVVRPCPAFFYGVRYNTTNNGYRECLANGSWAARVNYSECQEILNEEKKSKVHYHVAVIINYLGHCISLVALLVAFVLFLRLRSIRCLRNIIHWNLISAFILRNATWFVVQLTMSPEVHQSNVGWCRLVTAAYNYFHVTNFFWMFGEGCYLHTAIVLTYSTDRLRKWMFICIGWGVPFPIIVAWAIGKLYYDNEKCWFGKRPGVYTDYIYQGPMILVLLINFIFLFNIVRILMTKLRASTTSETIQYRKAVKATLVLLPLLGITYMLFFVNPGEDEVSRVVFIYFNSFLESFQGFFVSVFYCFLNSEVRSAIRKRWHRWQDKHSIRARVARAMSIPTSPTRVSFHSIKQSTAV

[3] = target: T1, human corticotrophin releasing hormone receptor type 2 (CRHR2) (human); assay: cell-based or functional assay

B1: human stresscopin related peptide (peptide)
peptide: HPGSRIVLSLDVPIGLLQILLEQARARAAREQATTNARILARV-NH2
notes: also called h-SRP
pKI [1]: 7.57 -log10(M) | binding result [2]: no binding | pA50 [3]: 9.32 -log10(M) and 9.58 -log10(M) and 9.23 -log10(M)
